Assay results reported in the nanobody polyreactivity screen of Harvey et al. (2022).

Test: yeast display, Sf9 membrane polyspecificity reagent, FACS + sequencing; frameworks hold sequencing errors
Procedure, shortened: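 Using colony PCR, genes from sorted yeast display clones were amplified, then sequenced on MiSeq at 2 × 250 and filtered by CDR length. The clones had been stained with 10% biotinylated, detergent-solubilized Sf9 membrane reagent for 1 hour at 4 °C and sorted by FACS into low and high (top ~1%) gates on anti-HA and streptavidin fluorescence. Polyreactivity labels come from the gate of origin.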

Sequence	polyreactivity (PSR sort gate)
QVQLVESGGGLVQPGGSLRLSCAASGRIFGYYVMGWYRQAPRKERELVAAITGGGGSTYYADSVKGRFTISRDNEKNTVFLQMNSLKPEDTAVYYCAADLEYTNYDYDYWGQGTQVTVSS	high polyreactivity
QVQLVESGGGLVQAGGSLRLSCAASGGTFRAYVMGWYRQAPGKERELVAAISRSGTRTYYADSVKGRFTISRDNAKNTVYSQLNSLKPEDTAVYYCAAAANSWLFDYWGQGTQVTVSS	high polyreactivity
QVQLVESGGGLVQAGGSLRLSCAASGYTFDTKAMGWYRLAPGKERELVAAISRIGGRTYADSVKGRFTISRDNAKNTVYLQMNSLKPEDTAVYYGAADTTWYPYGYDSWGQGTPVTVSS	low polyreactivity
QVQLVESGGRLVQAGGSLRLSCAASGSTFQFNVMGWYRQAPGKERELVAAITSGASTYYADSVKGRFTISRDNAKNTVYLQMNSLEPEDTAVYYCAVDYSFRYDYVQRYYYWGQGTQVTVSS	high polyreactivity
QVQLVESGGGLVQAGVSLRLSCAASGFILGYNAMGWYRQAPAKERELVAAITRGGSTYYADSVKGRFTISRDNSKNTVYLQMNSLKPEDTAVYYCAAAYRGYSSTLWLGHWGQGTQVTVSS	high polyreactivity
QVQLVESGGGLVQAGASLRLSCAASGNILVGNDMGWYRQAPWKERELVAAISSGDTTSYADSVKGRFTISRDNAKNTVYLQMNSLKPEDTAVYYCAVDRSLSPFAYDYWGQGTQVTVSS	low polyreactivity
QVQLVESGGGLVQAGGSLRLTCAASVSTIAGNAMGWYRQAPGKERELVAVITRVGSTNYADSVKGRFTISRDNAKNTVYLQMKSLKPEDTEVYYCARYGFLLDYWRGGYYWGQGTQVTVSS	high polyreactivity
QVQLVESGGGLVQAGGSLRLSCADSGRTFRIYAMGLYIQAPGKERELVAAITRRGGSTYYADSVKGRFTISRDNAKNTVYLQMNSLKPEDTAVYYCAADLRYGYLYPYDSWGQGTQVTVSS	high polyreactivity
QVQLVESGGGLVQAGGSLRLSCAASGSIFGYYTMGWYIQAPGKERELVARITRGGSTYYADSVKGRFTISRDNAKNTVYLQLNSLKPEDTAVYYCAARRVNAGWTYGLRGNYWGQGTQVTVSS	low polyreactivity
QVQLVESGGGLVQAGGSLRLSCAASGITFYGYAMGWYRQAPGKERELVAVITSSGSSTYYADSVKGRFTISRDNAKNTVYLQMNSLKPEDTAVYDCNARPGRRSLRSRTYDYWGQGTQVTVSS	high polyreactivity
QVQLVESGGGLVQAGGSLRLSCAASGFTFNLYDMGWYRQAPGKERELVAAINWSGGTYYADSVKGRFTISRDNAKNTVYLQMNSLKPEDPAVYYCAADFPYTPWSYHHHVWSPDFDYWGQGTQVTVSS	low polyreactivity
QVQLVESGGGLVQAGGSLRLSCAAYGSIFPYYAMGWYRQAPGKERELVAGITSGTRTNYADSVKGRFTISRDNAKNTVYLQMNSLKPEDTAVYYCAAYYRAYRRDYYWGQGTQVTVSS	high polyreactivity
QVQLVESGGGLVQAGGSLRLSCAASGRIFLYAMGWYRQAPGKERELVAAINSGGSTNYADSVKGRFTISRDNAKNTVYLQMNSLKPEDTAVYYCAAEVLYWYRYYYWGQGTQVTVSS	low polyreactivity
QVQLVESGGGLVQAGGSLRLSCAASGRIFIPYALGWYRQAPGKERELVAAISYRGGSTYYADSVKGRFTISRDNAKNTVYLQMNSLKPEDTAVYYCANYDYWGQGTQVTVSS	high polyreactivity
QVQLVESGGGLVQAGGSLRLSCAASGGTCSKYAMGWYRQARGKEREFVAAITVSGGGTYYADSVKGRFTISRDNAKNTVYLQMNSLKTEDTAVYYCAADLAWTASDYWGQGTQVTLSS	low polyreactivity
QVQLVESGGGLVQAGGSLRLSCAASGSIFVNNAMGWYRQAHGKERELVAAISGSGSSTHYAHSVKGRFTISRDNAKNTVYLQMNSLKPEDTAVYYCNRGRRDLDFNYWGQGTQVTVSS	low polyreactivity
QVQLVESGGGLVQAGGRLRLSCAASGRIFYYNAMGWYRQAPGKERELVATITGSGGSTYYADSVKGRFTISRDIAKNTVYLQMNSLKPEDTAVYYCAKRIYRYQYRPENYWGQGTQVTVSS	low polyreactivity
QVQLVESGGGLVQAGGSLRLSCAASGSIFDYYAMGWYRQAPGKERELVAAISSSGARTSYADSVKGRFTISRDNAKNTVYLQMNSLKPEDTAVYYCAAPYRSLKTGRYDYWGQGTQVTVSS	high polyreactivity
QVQLVESGGGLVQAGGSLRLSCAASGFTFPTYAMGWYRQAPGKERELVAAISTSGARTYYADSVKGRFTISRDNAKNTVYLQMNSLKPEDTAVYYCAAVFKAGSAYDYWGQGTQVTVSS	high polyreactivity
QVQLVESGGGLVQAGGSLRLSCAASGSIFFFNAMGWYRQAPGKVREFVAAITSSSGRTYYADSVKGRFTISRDNAKNTVYLQMNSLKPEDTAVYYCAAQVPEDTETVDYWGQGTQVTVSS	low polyreactivity
QVQLVESGGGLVQAGGSLRLSCAASGSTFTYYAMGWYRQAPGKEREWVAAISGGGDTYYADSVKGRFTISRDNAKNTVYLQMTSLKPEDTAVYYCNARVWAKSPRGSQYNMYDYWGQGTQVTVSS	high polyreactivity
QVQLVESGGGVVQAGGSLRLSCAASGRIISYNAMGWYRQAPGKERELVAAISWGGGSTYYADSVKGRFTISRDNAKNTVYLQMNSLKPEDTAVSYCAKGWYRIKRNDYWGQGTQVTVSS	low polyreactivity

Sequence	polyreactivity (PSR sort gate)
QVQLVESGGGLVQAGGSLRLRCAASGIIQQSYALGWSRQAPGKERELVAAIRGSDGSTYYADSVKGRFTISRDNAKNTVYLQMNSLKPEDTAVYYCNADTRTWPLDYWGQGTQVTVSS	low polyreactivity
QVQLVESGGGLVQAGGSLRLSCAASGSIFSYYAMGWSRQAPGKERELVAAIRRGGSTNYADSVKGRFTISRDNAKNTVYLQMNSLKPEDTAVYYCAASLGWRPSFSYYWGQGTQVTVSS	high polyreactivity
QVQLVESGGGLVQAGGSLRLSCAASGRTLPATGMGWYRQAPGKERELVAAINWRGGITYYADSVKGRFTISRDNAKNTVYLQMNSLKPVDTAVYYCARLRYFLLNGSLRYGTSDRDYWGQGTQVTVSS	high polyreactivity
QVQLVESGGGLVQAGGSLRLSCAASGNTFNGYTMGWYRQATGKERELVAVISSYGGRTNYADSVKGRFTISRDNAKITLYLQLNSLKTEVTAVYYCAARSSRLPHIYGYWGQGTQVTVSS	low polyreactivity
QVQLVESGGGLVQAGGSLRLSCAASGSIFYRYAMGWYRQAPGKERELVAGITRGGSTNYADSVKGRFTISRDNAKNTVYLQMNSLKPEDTAVYYCAARSYVYVHYYYWGQGTQVTVSS	high polyreactivity
QVQLVESGRGLVQAGCSLRLSCAASGSIFEWYAMGWSRQAPGKEMELVADITYNGGSTYYADSVKGRFTISRDNAKNTVYLQMNSLKPEDTAVYYCAADYFVQVPDYYYASEYGYWGQGTQVTVSS	low polyreactivity
QVQLVESGGCLVQAGGSLRLSCAASGRIFSAYAMGWYRQAPGKESELVAAISRSGGLTYYADSVKGRFTISRDNAKNTVYLQMTSLKPEDTAVYYCAARYGSYDSRRWYYYWGQGTQVTVSS	high polyreactivity
QVQQQESGGGLVQAGGSLRLSCAASGTIFQLTVMGRYRQAPGKERQLVASIDYGGNTNYADSVKGRFTISRDNAKNTVYLQMNSLKPEDTAVYYCAASSDSWTTHPYWGQGTQVTVSS	low polyreactivity
QVQLVESGGGLVQAGGSLRLSCAASGSIFDPYAMGWYRQAPGKETELDAAITASGSSTYYADSVKGRFTISRDNAKNTVYLQMNSLKPEDTAVYYCAADRANWEYLLSWLGYDYWGQGTQVTVSS	low polyreactivity
QVQLVESGGGLVQAGGSLRLSCAASGRIFIGYAMGWYRQAPGKERELVAGISQRGGRTYYADSVKGRFTISRDNAKNTVYLQMNSLKPEDTAVYYCNKRFSLGYRGGYWGQGTQVTVSS	high polyreactivity
QVQLVESGGGLVQAGGSLRLSCAASGSTFDYYDMGWYRQAPGKARELVAAISSGGDSTYYADSVKGRFTISRDNAKNTVYLQMNSLKPEDTAVYYCAAAVYYGQSVWYYYWGQGTQVTVSS	high polyreactivity
QVQLVESGGGLVQAGGSLRLSCAASGSTFAFYAMGWYRQAPGTERELVAAIRSGGSTNYADSVKGRFTISRDNAKNTVYLQMNSLKPEDTAVYYCAARESDPGSHSVYREDDYWGQGTQVTVSS	low polyreactivity
QVQLEESGGGLVQAGGSLRLSCAASGFIFSRNAMGWYRQAPGKERELVAAITGSGARTYYADSVKGRFTISRDNAKNTVYLQMNSLKPEDTAVYYCNADARGGIYFRGVKFDYWGLGTQVTVSS	high polyreactivity
QVQLVESGGGLVQAGGSLRLSCAAYGRTFDTYAMGWYLQAPGKERELVAAISFSGASTYYADSVKGRFTISRDNAKNTVYLQLNSLKPEDTAVYYCNARYGYRVPLTPIGARFNYWGQGTQETVSS	high polyreactivity
QFQLVESGGGIVQAGGSHRVICAASASTFARNAMGWYRQATGKESEFVATISSSGGRTYYADSVKGRFTISRDNAKNTVYLQMNSLKPEDTAVYYCAADYHIVWYEEYSWGQGTQVTVSS	high polyreactivity
QVQLVESGGGLVQAGGSLRLSCGAYGSIFVSHAMAWSRQAPGKASELVAAISQSGGSTYYADSVKGRFTISRDNAKNTVFLQMSSLKPEDTAVYYCATPSRSGFRIYDYWGQGTQVTVSS	low polyreactivity
QVQLVESGGGLVQAGGSLRLSCAASGSIFVGNAMGWYRQAPGKERELVSTISRGARTKYADSVKGRFTISRDNAKNTVYLQMNSLKPEDTAVYYCNKVSSYYVFYTPYYSWGQGTQVTVSS	low polyreactivity
QVQLVESGGGLVQAGGSLRLSCAASGYIFRLYAMGWYRQAPGKERELVATITASGGTYYADSVKGRFTISRDNAKNTVYLQMNSLKPEDTAVYYCAAAKLRRLSRVRYGYWGQGTQVTVSS	high polyreactivity
QVQLVESGGGLVQAGGSLRLSCAASGSTFWKYVMGWYRQAPGKERELVAAIDTGASTNYADSVKGRFTISRDNAKYTVYLQMNSLKPEDTAVYFCNAELWYGPDELTGDYWGQGTQVTVSS	low polyreactivity
QVQLVESGGGLVQAGGSLRLSCAASGFTFNYYAMGWYRQAPGKEREFVAAISRSAGSTYYADSVKGRFTISRDNAKNTVYLQMNSLKPEDTAVYYCAADPRSKGFYYGYDYWGQGTQVTVSS	high polyreactivity
QVQLVESGGGLVQAGGSLRLSCAPSGGTFYANDMGWYRQAPGKERELVATISKSGGSTYYAESVKRPFTISRDNAKNTVYCQMNSLKPEVTAVYYCAARTTYLYGMYYWGQGTQVTVSS	low polyreactivity
